The text below walks through data of article PMC8359340.

The target in the test is Synechococcus sp. PCC 7002 Type 2 β‐McdB (Synechococcus sp. PCC 7002). Kind of test: SEC-MALS.

“Synechococcus sp. PCC 7002 Type 2 β‐McdB (natural protein)” displayed a stoichiometry N of 2.
